We go through four molecules from patent US20220041685A1 (SUNNYBROOK RESEARCH INSTITUTE, published 2022).

Experiment [1] has as its target putative VISTA-receptor on murine T-cells (2.10 T-cell clone; primary CD4+ T-cells) (mouse). The experiment in a line: cell-based or functional assay.
Experiment [2] deals with T1, hICOS-Fc (R&D Systems) (human, UniProt Q9Y6W8 21-141, limits assumed).
T1 construct: Bought from R&D Systems; also called human ICOS; not shown: Fc part of a bought fusion protein; not described
T1 sequence (looked up): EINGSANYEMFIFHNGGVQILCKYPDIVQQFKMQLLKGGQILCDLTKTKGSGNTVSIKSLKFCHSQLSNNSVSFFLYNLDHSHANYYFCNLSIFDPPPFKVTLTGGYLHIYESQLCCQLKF
The experiment in a line: SPR single cycle kinetics (Biacore T200), hICOS-Fc immobilized on a CM5 chip, 1:1 model. (SPR reads the build-up and loss of mass on a sensor chip optically.)

Experiment [3] concerns the target T1, hICOS-Fc (R&D Systems). Nature of the experiment: SPR single cycle kinetics (Biacore T200), hICOS-Fc immobilized on a CM5 chip.

In general, Kd refers to a measure of binding affinity in units of concentration. A higher Kd goes with weaker binding.

“murine VISTA.COMP pentamer, histidine tagged (VISTA.COMP.his) (ligand)”: in experiment [1], the anti-CD3-induced 2.10 cell proliferation (3H-thymidine) was 1 µg/mL. Regarding “VISTA-Fc (murine VISTA extracellular domain fused to the human IgG-1 Fc region; dimeric) (Fc fusion)”, the anti-CD3-induced 2.10 cell proliferation (3H-thymidine) in experiment [1] was > 30 µg/mL.

B1: human ICOS-L.COMP pentamer (human ICOS-L extracellular domain fused to the COMP pentamerization domain, C-terminal histidine tag) (ligand)
chain: DTQEKEVRAMVGSDVELSCACPEGSRFDLNDVYVYWQTSESKTVVTYHIPQNSSLENVDSRYRNRALMSPAGMLRGDFSLRLFNVTPQDEQKFHCLVLSQSLGFQEVLSVEVTLHVAANFSVPVVSAPHSPSQDELTFTCTSINGYPRPNVYWINKTDNSLLDQALQNDTVFLNMRGLYDVVSVLRIARTPSVNIGCCIENVLLQQNLTVGSQTGNDIGERDKITENPVSTGEKNAATWSDLGPQMLRELQETNAALQDVRELLRQQVREITFLKNTVMECDACG
Consider B1, for which the Kd with hICOS-Fc (R&D Systems) [2] was found to be 0.9 nM. Further, in the experiment with hICOS-Fc (R&D Systems) [3], the “fold stronger KD than hICOSL-Fc” value was ~3 fold.

B2: hICOSL-Fc (R&D Systems), dimeric human ICOS-L ECD Fc fusion (Fc fusion, not shown: a dimerising Fc or GST; small tags and cut ends)
chain: DTQEKEVRAMVGSDVELSCACPEGSRFDLNDVYVYWQTSESKTVVTYHIPQNSSLENVDSRYRNRALMSPAGMLRGDFSLRLFNVTPQDEQKFHCLVLSQSLGFQEVLSVEVTLHVAANFSVPVVSAPHSPSQDELTFTCTSINGYPRPNVYWINKTDNSLLDQALQNDTVFLNMRGLYDVVSVLRIARTPSVNIGCCIENVLLQQNLTVGSQTGNDIGERDKITENPVSTGEKNAATWS
modifications: Fc-mediated dimer (two copies); the Fc is left out.
B2 returned a Kd with hICOS-Fc (R&D Systems) [2] of 2.9 nM.
